Test results taken from patent US20120207760A1 (THERACLONE SCIENCES, published 2012).

Assays:
[1] = target: T1, M2 protein of A/Puerto Rico/8/34 (H1N1), on virus particles, infected MDCK cells or transfected cells (influenza A virus A/Puerto Rico/8/34 …, UniProt P06821 1-97); assay: ELISA on purified A/Puerto Rico/8/34 virus (FIG. 14a)
T1 construct: whole, on cells

[2] = target: recombinant homotrimeric HA, A/Wisconsin/67/05 H3N2 (Influenza A virus A/Wisconsin/67/05 …); assay: trimeric HA microarray, transfection set 5
[3] = target: recombinant homotrimeric HA, A/Japan/305/57 H2N2 (Influenza A virus A/Japan/305/57 (H2N2)); assay: trimeric HA microarray, transfection set 5
[4] = target: recombinant homotrimeric HA, A/Vietnam/1203/04 H5N1 (Influenza A virus A/Vietnam/1203/04 …); assay: trimeric HA microarray, transfection set 5
[5] = target: recombinant homotrimeric HA, A/South Carolina/1/18 H1N1 (Influenza A virus A/South Carolina/1/18 …); assay: trimeric HA microarray, transfection set 5
[6] = target: recombinant homotrimeric HA, A/California/4/09 H1N1 (Influenza A virus A/California/4/09 …); assay: trimeric HA microarray, transfection set 5
[7] = target: recombinant homotrimeric HA, A/Indonesia/5/05 H5N1 (Influenza A virus A/Indonesia/5/05 …); assay: trimeric HA microarray, transfection set 5
[8] = target: recombinant homotrimeric HA, A/swine/Ontario/01911-2/99 H4N6 (Influenza A virus …); assay: trimeric HA microarray, transfection set 5
[9] = target: recombinant homotrimeric HA, A/Solomon Islands/3/06 H1N1 (Influenza A virus A/Solomon …); assay: trimeric HA microarray, transfection set 5

B1: TCN-031 (23K12) (antibody, V domains shown)
VH: EVQLVESGGGLVQPGGSLRISCAASGFTVSSNYMSWVRQAPGKGLEWVSVIYSGGSTYYADSVKGRFSFSRDNSKNTVFLQMNSLRAEDTAVYYCARCLSRMRGYGLDVWGQGTTVTVSS
VL: DIQMTQSPSSLSASVGDRVTITCRTSQSISSYLNWYQQKPGKAPKLLIYAASSLQSGVPSRFSGSGSGTDFTLTISGLQPEDFATYYCQQSYSMPAFGQGTKLEIK
- EC50 [1]: ~0.1 µg/mL

B2: TCN-032 (8I10) (antibody, V domains shown)
VH: QVQLQESGPGLVKPSETLSLTCTVSGSSISNYYWSWIRQSPGKGLEWIGFIYYGGNTKYNPSLKSRVTISQDTSKSQVSLTMSSVTAAESAVYFCARASCSGGYCILDYWGQGTLVTVSS
VL: DIQMTQSPSSLSASVGDRVTITCRASQNIYKYLNWYQQRPGKAPKGLISAASGLQSGVPSRFSGSGSGTDFTLTITSLQPEDFATYYCQQSYSPPLTFGGGTRVEIK
- EC50 [1]: ~0.1 µg/mL

B3: TCN-556 (5089_K12) (antibody, V domains shown)
VH: QVQLVQSGAEVKKPGASVKVSCKASGYTFIGYDMHWVRQAPGQGLEWMGWINAKRGGTNYAQKFQGRVTMTRDTSISTAYMELNSLRSDDTAVYYCARGVGSRTTIFGVLNPEFDYWGQGTLVTVSS
VL: QSALTQPPSASGSPGQSVTISCTGSSSDVGGYDYVSWYQQHPGKAPKLLIYEVTKRPSGVPDRFSGSKSGNTASLTVSGLQAEDEADYYCSSYAGNYNHVFGPGTKVTVL
- Trimeric HA Binding RLU [2]: 44700 RLU
- Trimeric HA Binding RLU [3]: 22800 RLU
- Trimeric HA Binding RLU [4]: 17400 RLU
- Trimeric HA Binding RLU [5]: 32700 RLU
- Trimeric HA Binding RLU [6]: 20900 RLU
- Trimeric HA Binding RLU [7]: 15200 RLU
- Trimeric HA Binding RLU [8]: 19300 RLU
- Trimeric HA Binding RLU [9]: 23400 RLU

B4: TCN-560 (5084_P10) (antibody, V domains shown)
VH: EVQLVESGGGLVQPGGSLRLSCAASGFIFRNYWMSWVRQAPGKGLEWVANIKQDGREKYYVDSLRGRVNISRDNAENSLYLHMNSLRVEDTAVYFCARARMVVVTGDGFDVWGHGTMVTVSS
VL: DIQMTQSPSSLSASVGDRVTITCRASQNIKRYFNWYQQKPGKAPKLLIYAASNLENGVPSRFSGSGSGTDFTLTISSLQPEDFATYYCQQSFSKSWTFGQGTNVDIK
- Trimeric HA Binding RLU [2]: 55400 RLU
- Trimeric HA Binding RLU [3]: 25900 RLU
- Trimeric HA Binding RLU [4]: 19500 RLU
- Trimeric HA Binding RLU [5]: 30500 RLU
- Trimeric HA Binding RLU [6]: 31100 RLU
- Trimeric HA Binding RLU [7]: 17000 RLU
- Trimeric HA Binding RLU [8]: 16800 RLU
- Trimeric HA Binding RLU [9]: 22400 RLU
